We go through seven compounds from article PMC9098870, “Integrated omics approach to unveil antifungal bacterial polyynes as acetyl-CoA acetyltransferase inhibitors” (Communications Biology, 2022).

In experiment [1] the target is MasL-collimonin D complex (MasL modified by collimonin D) (Massilia sp. YMA4). In words: crystal structure; X-ray crystal structures of MasL, apo and after incubation with collimonin C or D; a tetramer in the asymmetric unit (space groups P1, P2_(1), P1).
Experiment [2] concerns the target MasL-collimonin C complex (MasL covalently modified by collimonin C at Cys90) (Massilia sp. YMA4). Described as above.
Experiment [3] addresses MasL (acetyl-CoA acetyltransferase of Massilia sp. YMA4), apo form (Massilia sp. YMA4). Briefly: not stated; oligomeric state of MasL in solution; method not given.
The target is the same in experiment [4]. Briefly: crystal structure; X-ray crystal structures of MasL, apo and after incubation with collimonin C or D; a tetramer in the asymmetric unit (space groups P1, P2_(1), P1).
Experiment [5] deals with T1, MasL ([Empedobacter] haloabium, UniProt A0A915Q9D3).
T1 construct: gene E7V67_18950; recombinant, purified from E. coli; residues 1-394 described; tetramer in solution; reactive Cys90, His350, Cys380; tag details in supplement
T1 sequence (A0A915Q9D3 entry or part of it): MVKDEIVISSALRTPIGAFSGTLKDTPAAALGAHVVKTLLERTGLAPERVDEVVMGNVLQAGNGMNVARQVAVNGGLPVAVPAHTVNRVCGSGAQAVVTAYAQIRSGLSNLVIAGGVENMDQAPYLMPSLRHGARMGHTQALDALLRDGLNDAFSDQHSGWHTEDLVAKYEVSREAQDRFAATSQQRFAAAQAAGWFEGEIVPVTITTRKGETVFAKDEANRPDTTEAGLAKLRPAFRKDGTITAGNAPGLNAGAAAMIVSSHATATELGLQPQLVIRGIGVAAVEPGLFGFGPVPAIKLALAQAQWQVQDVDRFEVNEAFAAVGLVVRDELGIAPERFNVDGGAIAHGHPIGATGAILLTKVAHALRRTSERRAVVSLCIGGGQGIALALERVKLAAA
In words: CoA release, fluorescent probe; progress curves, covalent inhibitor model. Format: biochemical. An excerpt:
CoA release, fluorescent probe; progress curves, covalent inhibitor model on MasL

Regarding “MasL-collimonin D complex (MasL modified by collimonin D) (enzyme)”, in experiment [1], the stoichiometry N – broadly, the number of molecules, sites or subunits per partner or assembly – is 4.
The compound “MasL-collimonin C complex (MasL covalently modified by collimonin C at Cys90) (enzyme)” gave a stoichiometry N in experiment [2] of 4.
“MasL (acetyl-CoA acetyltransferase of Massilia sp. YMA4), apo form (enzyme)”: the stoichiometry N in experiment [3] and in experiment [4] was 4 in each case.
In turn, `C#CC#CC#C/C=C/C[C@@H](O)[C@H](O)CCCCC(=O)O` [compound 2, collimonin D] yielded a KI (inactivation) in experiment [5] (covalent, irreversible S-alkylation of Cys90 (by MS), competitive against acetyl-CoA, complex structure 1.40 Å) of 42.8 µM.
In experiment [5] (covalent, adduct by mass spectrometry), `C#CC#CC#C/C=C/CCC(O)CCCCC(=O)O` (centres unmarked) [compound 3, massilin A] registered a KI (inactivation) of 132 µM.
`C#CC#CC#C/C=C/CCCCCCCC(=O)O` [compound 5, massilin C]: the KI (inactivation) in experiment [5] (covalent inhibitor model) came to 228 µM.
Consider `C#CC#CC#C/C=C/C[C@@H](O)[C@@H](O)CCCCC(=O)O` [compound 1, collimonin C], for which, in experiment [5] (covalent, irreversible S-alkylation of Cys90, competitive against acetyl-CoA, complex structure 1.66 Å), the KI (inactivation) came out at 297 µM.
